Test results from patent US20110070235A1.

Target: M2e
Assay: peptide ELISA, mAb 5 ug/mL

Row | Substance | ELISA A450
1 | TCN-031 (23K12) (antibody) | 0.43
2 | chimeric mouse V-region/human IgG1 kappa 14C2 antibody | 3.98
